Tested on: Escherichia coli TOP10
Assay: shrunken log2 fold change of peptide-encoding DNA abundance (4.5 h post-induction vs induction); higher = less antimicrobial activity (less host growth inhibition)
Conditions: time post-induction: 4.5 h; library: site-saturation at positions 5, 18, 19, 20
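Also: peptides expressed intracellularly from a pBAD plasmid library in pooled LB shake-flask culture, induced with 0.3% L-arabinose, DNA abundance read by NGS, three biological replicates, DESeq2 with apeglm shrinkage.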

Point of comparison: RRIRPRPPRLPRPRPRPGRPPRP, “shrunken log2 fold change” value 0.155. Against it:
- RRIRWRPPRLPRPRPRPCPIPRP — lower, -0.204
- RRIRVRPPRLPRPRPRPCLSPRP — lower, -0.153
- RRIRGRPPRLPRPRPRPGVIPRP — higher, 0.375
- RRIRLRPPRLPRPRPRPPHQPRP — within 0.2 log units, 0.168
- RRIRTRPPRLPRPRPRPASWPRP — higher, 0.733
- RRIRCRPPRLPRPRPRPTPTPRP — higher, 0.982
- RRIRSRPPRLPRPRPRPWQLPRP — within 0.2 log units, -0.018
- RRIRPRPPRLPRPRPRPYFWPRP — lower, -0.137
- RRIRPRPPRLPRPRPRPHRCPRP — lower, -0.299
- RRIRFRPPRLPRPRPRPMCIPRP — lower, -0.075
- RRIRTRPPRLPRPRPRPLQVPRP — lower, -0.219
- RRIRYRPPRLPRPRPRPMFLPRP — lower, -0.377
- RRIRTRPPRLPRPRPRPQPIPRP — within 0.2 log units, 0.0337
- RRIRARPPRLPRPRPRPNSCPRP — lower, -0.205
- RRIRMRPPRLPRPRPRPLINPRP — lower, -0.231
- RRIRARPPRLPRPRPRPNNMPRP — lower, -0.516
- RRIRQRPPRLPRPRPRPESNPRP — lower, -0.257
- RRIRHRPPRLPRPRPRPGVCPRP — lower, -0.263
- RRIRRRPPRLPRPRPRPSSEPRP — lower, -0.322
- RRIRFRPPRLPRPRPRPVFNPRP — lower, -0.461
- RRIRQRPPRLPRPRPRPMNPPRP — lower, -0.0843
- RRIRIRPPRLPRPRPRPSAIPRP — lower, -0.0599
- RRIRRRPPRLPRPRPRPYPKPRP — within 0.2 log units, -0.0202
- RRIRQRPPRLPRPRPRPKPIPRP — lower, -0.112
- RRIRMRPPRLPRPRPRPKPMPRP — higher, 1.14
- RRIRRRPPRLPRPRPRPEYGPRP — within 0.2 log units, -0.0277
- RRIRFRPPRLPRPRPRPNHYPRP — lower, -0.62
- RRIRLRPPRLPRPRPRPAFIPRP — lower, -0.116
- RRIRYRPPRLPRPRPRPRWGPRP — within 0.2 log units, 0.12
- RRIRYRPPRLPRPRPRPKLHPRP — lower, -0.431
- RRIRDRPPRLPRPRPRPGTQPRP — within 0.2 log units, 0.00934
- RRIRGRPPRLPRPRPRPWYVPRP — lower, -2.24
- RRIRFRPPRLPRPRPRPTMAPRP — within 0.2 log units, 0.185
- RRIRRRPPRLPRPRPRPQRAPRP — within 0.2 log units, 0.226
- RRIRHRPPRLPRPRPRPCPNPRP — within 0.2 log units, -0.00414
- RRIRNRPPRLPRPRPRPDRMPRP — lower, -0.282
- RRIRGRPPRLPRPRPRPGPFPRP — within 0.2 log units, 0.218
- RRIRQRPPRLPRPRPRPTQFPRP — within 0.2 log units, 0.14
- RRIRPRPPRLPRPRPRPCITPRP — lower, -0.373
- RRIRIRPPRLPRPRPRPECLPRP — within 0.2 log units, 0.0969
- RRIRKRPPRLPRPRPRPHITPRP — lower, -0.167
- RRIRRRPPRLPRPRPRPLNYPRP — lower, -0.365
- RRIRRRPPRLPRPRPRPWEPPRP — within 0.2 log units, 0.0979
- RRIRGRPPRLPRPRPRPDQFPRP — higher, 0.704
- RRIRHRPPRLPRPRPRPAPDPRP — within 0.2 log units, -0.0192
- RRIRWRPPRLPRPRPRPKDTPRP — lower, -0.145
- RRIRDRPPRLPRPRPRPWKFPRP — within 0.2 log units, 0.0062
- RRIRARPPRLPRPRPRPWCAPRP — within 0.2 log units, 0.147
- RRIRKRPPRLPRPRPRPKWYPRP — lower, -0.235
- RRIRMRPPRLPRPRPRPATFPRP — higher, 0.376
- RRIRARPPRLPRPRPRPFMLPRP — within 0.2 log units, -0.0197
- RRIRIRPPRLPRPRPRPMKAPRP — lower, -1.03
- RRIRKRPPRLPRPRPRPLNPPRP — within 0.2 log units, 0.129
- RRIRKRPPRLPRPRPRPNYFPRP — lower, -0.303
- RRIRPRPPRLPRPRPRPKAFPRP — lower, -0.198
- RRIRSRPPRLPRPRPRPHSYPRP — lower, -0.171
- RRIRYRPPRLPRPRPRPEGDPRP — within 0.2 log units, -0.00396
- RRIRPRPPRLPRPRPRPYQGPRP — within 0.2 log units, -0.0345
- RRIRARPPRLPRPRPRPFLEPRP — lower, -0.219
- RRIRSRPPRLPRPRPRPFFEPRP — lower, -0.161
- RRIRCRPPRLPRPRPRPQTKPRP — within 0.2 log units, 0.146
- RRIRMRPPRLPRPRPRPTFWPRP — higher, 0.916
- RRIRMRPPRLPRPRPRPREIPRP — higher, 1.35
- RRIRHRPPRLPRPRPRPYCMPRP — lower, -1.05
- RRIRIRPPRLPRPRPRPTESPRP — lower, -0.433
- RRIRWRPPRLPRPRPRPHFNPRP — lower, -0.333
- RRIRKRPPRLPRPRPRPKWWPRP — within 0.2 log units, 0.238
- RRIRQRPPRLPRPRPRPQSMPRP — lower, -0.395
- RRIRARPPRLPRPRPRPNTFPRP — within 0.2 log units, -0.0206
- RRIRPRPPRLPRPRPRPSQKPRP — within 0.2 log units, 0.188
- RRIRDRPPRLPRPRPRPSMMPRP — higher, 0.636
- RRIRLRPPRLPRPRPRPCWRPRP — within 0.2 log units, 0.0285
- RRIRDRPPRLPRPRPRPAFNPRP — lower, -0.223
- RRIRRRPPRLPRPRPRPTTTPRP — within 0.2 log units, 0.34
- RRIRDRPPRLPRPRPRPECLPRP — within 0.2 log units, 0.0572
- RRIRCRPPRLPRPRPRPNISPRP — within 0.2 log units, 0.039
- RRIRCRPPRLPRPRPRPCFTPRP — lower, -0.552
- RRIRYRPPRLPRPRPRPGNQPRP — lower, -0.252
- RRIRKRPPRLPRPRPRPSYRPRP — within 0.2 log units, 0.0249
- RRIRFRPPRLPRPRPRPLVKPRP — lower, -0.143
- RRIRPRPPRLPRPRPRPYTEPRP — lower, -0.349
- RRIRFRPPRLPRPRPRPDDSPRP — lower, -0.154
- RRIRFRPPRLPRPRPRPCSIPRP — within 0.2 log units, 0.0647
- RRIRMRPPRLPRPRPRPADKPRP — within 0.2 log units, 0.318
- RRIRMRPPRLPRPRPRPQKAPRP — within 0.2 log units, 0.0203
- RRIRLRPPRLPRPRPRPKCKPRP — lower, -0.223
- RRIRTRPPRLPRPRPRPEVDPRP — within 0.2 log units, 0.036
- RRIRMRPPRLPRPRPRPANTPRP — within 0.2 log units, -0.0215
- RRIRSRPPRLPRPRPRPTKTPRP — lower, -0.0829
- RRIRLRPPRLPRPRPRPGSQPRP — within 0.2 log units, 0.0681
- RRIRSRPPRLPRPRPRPVMRPRP — higher, 0.594
- RRIRNRPPRLPRPRPRPHLIPRP — within 0.2 log units, -0.00549
- RRIRHRPPRLPRPRPRPWCTPRP — lower, -0.11
- RRIRKRPPRLPRPRPRPVKVPRP — higher, 0.432
- RRIRMRPPRLPRPRPRPPHCPRP — higher, 1.68
- RRIRERPPRLPRPRPRPFWTPRP — lower, -0.24
- RRIRYRPPRLPRPRPRPQQLPRP — lower, -0.181
- RRIRHRPPRLPRPRPRPEEEPRP — within 0.2 log units, -0.0106
- RRIRSRPPRLPRPRPRPDNIPRP — lower, -0.347
- RRIRMRPPRLPRPRPRPIRTPRP — lower, -0.0696
- RRIRQRPPRLPRPRPRPFMVPRP — lower, -0.686
- RRIRRRPPRLPRPRPRPFMYPRP — lower, -0.174
- RRIRERPPRLPRPRPRPIDNPRP — lower, -0.108
- RRIRNRPPRLPRPRPRPLIHPRP — lower, -0.714
- RRIRDRPPRLPRPRPRPAWPPRP — higher, 0.815
- RRIRHRPPRLPRPRPRPQQFPRP — lower, -0.217
- RRIRTRPPRLPRPRPRPRRFPRP — lower, -0.115
- RRIRQRPPRLPRPRPRPSEEPRP — lower, -0.226
- RRIRGRPPRLPRPRPRPYAFPRP — higher, 0.413
- RRIRQRPPRLPRPRPRPYLVPRP — lower, -0.551
- RRIRFRPPRLPRPRPRPHCNPRP — lower, -0.548
- RRIRHRPPRLPRPRPRPNGRPRP — within 0.2 log units, -9.3e-05
- RRIRWRPPRLPRPRPRPELIPRP — higher, 1.56
- RRIRVRPPRLPRPRPRPFKKPRP — lower, -0.115
- RRIRWRPPRLPRPRPRPMAKPRP — within 0.2 log units, 0.148
- RRIRRRPPRLPRPRPRPLKWPRP — lower, -0.107
- RRIRFRPPRLPRPRPRPAWNPRP — within 0.2 log units, 0.291
- RRIRSRPPRLPRPRPRPSHYPRP — lower, -1.44
- RRIRWRPPRLPRPRPRPCVMPRP — within 0.2 log units, 0.0583
- RRIRSRPPRLPRPRPRPRKTPRP — within 0.2 log units, 0.0973
- RRIRGRPPRLPRPRPRPGTWPRP — within 0.2 log units, 0.255
- RRIRLRPPRLPRPRPRPPASPRP — higher, 0.561
- RRIRQRPPRLPRPRPRPAMQPRP — within 0.2 log units, 0.109
- RRIRFRPPRLPRPRPRPYTRPRP — lower, -0.369
- RRIRIRPPRLPRPRPRPGIGPRP — within 0.2 log units, 0.127
- RRIRFRPPRLPRPRPRPMYDPRP — lower, -0.244
- RRIRNRPPRLPRPRPRPCSKPRP — lower, -0.0508
- RRIRGRPPRLPRPRPRPMMLPRP — within 0.2 log units, 0.158
- RRIRERPPRLPRPRPRPWDEPRP — within 0.2 log units, 0.0271
- RRIRMRPPRLPRPRPRPSYVPRP — lower, -0.331
- RRIRRRPPRLPRPRPRPIWWPRP — higher, 0.58
- RRIRPRPPRLPRPRPRPKAHPRP — within 0.2 log units, 0.0759
- RRIRIRPPRLPRPRPRPAWEPRP — lower, -0.143
- RRIRPRPPRLPRPRPRPITQPRP — lower, -0.194
- RRIRCRPPRLPRPRPRPSPDPRP — within 0.2 log units, 0.215
- RRIRKRPPRLPRPRPRPDWCPRP — within 0.2 log units, 0.292
- RRIRTRPPRLPRPRPRPYKPPRP — lower, -0.551
- RRIRERPPRLPRPRPRPMMTPRP — lower, -0.067
- RRIRLRPPRLPRPRPRPGCWPRP — higher, 0.482
- RRIRTRPPRLPRPRPRPRMLPRP — within 0.2 log units, 0.292
- RRIRMRPPRLPRPRPRPLFGPRP — within 0.2 log units, 0.232
- RRIRMRPPRLPRPRPRPICKPRP — within 0.2 log units, -0.0206
- RRIRDRPPRLPRPRPRPGKNPRP — lower, -0.543
- RRIRPRPPRLPRPRPRPKLPPRP — within 0.2 log units, 0.298
- RRIRQRPPRLPRPRPRPKEAPRP — within 0.2 log units, 0.107
- RRIRLRPPRLPRPRPRPNDSPRP — within 0.2 log units, -0.0215
- RRIRHRPPRLPRPRPRPQVSPRP — within 0.2 log units, -0.00697
- RRIRGRPPRLPRPRPRPCGRPRP — higher, 0.799
- RRIRDRPPRLPRPRPRPKHHPRP — lower, -0.272
